Patent US20050118646A1

How the values were obtained:
[1] = molecular target: Neutravidin (UltraLink neutravidin beads, Pierce; neutravidin protein) (UniProt P02701); assay: ELIFA; binding of the biotinylated protein to Ultralink Neutravidin beads (through biotin)
[2] = molecular target: Neutravidin (UltraLink neutravidin beads, Pierce; neutravidin protein) (UniProt P02701); assay: Western blot (streptavidin-HRP) of sample and supernatant after binding to Neutravidin beads

UniProt P02701, sequence (P02701 25-152): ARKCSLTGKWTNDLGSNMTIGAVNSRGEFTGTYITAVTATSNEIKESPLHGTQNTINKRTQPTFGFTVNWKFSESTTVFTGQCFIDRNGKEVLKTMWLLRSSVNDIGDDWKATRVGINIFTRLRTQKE

Substance	Binding [%] [1] [%]	percent bound to the beads [2] [%]
E24-tagged CDKN1b (AviTag-TEV cleavage site-His6-PrC-CDKN1b), biotinylated (from UniProt P46527 1-198)	100	> 80
E24-tagged Grb2 (AviTag-TEV cleavage site-His6-PrC-Grb2), biotinylated (from UniProt P62993 1-217)	100	> 80
E24-tagged NAPA (AviTag-TEV cleavage site-His6-PrC-NAPA), biotinylated (from UniProt P54920 1-295)	100	> 80
E25-tagged Grb2 (AviTag-(G4S)2-TEV cleavage site-His6-PrC-Grb2), biotinylated (from UniProt P62993 1-217)	100	> 80

Next, values leading:

Binding [%] [1] [%]	percent bound to the beads [2] [%]	Substance
100	> 80	E25-tagged CDKN1b (AviTag-(G4S)2-TEV cleavage site-His6-PrC-CDKN1b), biotinylated (from UniProt P46527 1-198)
100	> 80	E25-tagged NAPA (AviTag-(G4S)2-TEV cleavage site-His6-PrC-NAPA), biotinylated (from UniProt P54920 1-295)
